Test results reported in US20260217819A1 (HANSOH BIO, published 2026).
Where a chain is given by its changes, count along the chain named.

B1: anti-CDH17 recombinant antibody 14B12 (human IgG1) (antibody, V domains shown)
VH: QVQLQESGPGLVKPSETLSLTCTVSGGSINTYYRSWIRQPPGKGLEWIGYIYYSGNTNYNPSLKSRVTISADTSKNQFSLNLISVTAADTAMYYCARAQYGEEAFDIWGQGTLVTVSS
VL: DIQMTQSPSSLSASVGDRVTITCRASQSITTYLNWYQQKPGKAPQLLIFAASRLQTGVPSRFSGSGSGTDFTLTISSLLPGDFATYYCQQSYNTPPTFGGGTKVEIKR
B2: anti-CDH17 recombinant antibody 13C7 (human IgG1) (antibody, V domains shown)
VH: QITLKESGPTLVKPTQTLTLTCTFSGFSLSTSGVGVGWIRQPPGKALEWLALIYWNDDKRYRPSLKNRLTITKDTSKNQVVLTMTNMDPVDTATYYCTHYGVTAPFYNWFDPWGQGTLVTVSS
VL: DIQMTQSPSSLSASVGDRVTITCRASQSITSYLNWYQQKPGKAPKLLIYAASSLQSGVPSRFSGSGSGTDFTLTISSLQPEDFATYYCQRSYSTLTFGGGTKVEIKR
B3: anti-CDH17 recombinant antibody 19C7 (human IgG1) (antibody, V domains shown)
VH: B2 VH with F27I, S32G, A51S, R62S, N67S, T75S, T98A, Y100S, V102L, T103A
VL: B2 VL with T30S, S31N, Q38L, K42N, Y49F, Y87F
B4: anti-CDH17 recombinant antibody 10E11 (human IgG1) (antibody, V domains shown)
VH: EVQLVQSGTEVKKPGESLKISCKDSGYRFSSYWIGWVRQMPGKGLEWMGIIYPGDSDTRYSPSFQGQVTISADKSISTAYLQWRSLKASDTAMYYCARRGWVNYFDYWGQGTLVTVSS
VL: DIQMTQSPSSVSASVGDRVTITCRASQGISNWLGWYQQKPGKAPKLLIYAASSLQSGVPSRFSGSGSGTDFTLTISSLQPEDFATYYCQQANSFPLTFGGGTKVEIKR
B5: anti-CDH17 recombinant antibody 1H10 (human IgG1) (antibody, V domains shown)
VH: QVQLVESGGGVVQPGRSLRLSCVASGFTFSSYGMHWVRQAPGKGLEWVTFIWYDGSNKNYADSVKGRFTISRDNSKNTLNLQMNSLRVEDTAVYYCARDRYSSGWDVFDYWGQGTLVTVSS
VL: B4 VL with G28D, N31S, G34A, K39Q, L47Q, N92K, L96P, G100Q
B6: anti-CDH17 recombinant antibody 15A4 (human IgG1) (antibody, V domains shown)
VH: B5 VH with V23A, T28N, T49A, I51V, K58Q, K76N, N80Y, V88A
VL: B4 VL with N31S, G34A, Y49F, D70G, N92K, L96P, G100Q
B7: anti-CDH17 recombinant antibody 17F3 (human IgG1) (antibody, V domains shown)
VH: EVQLVESGGGLVKSGGSLRLSCAASGFTFSSYSLKWVRQAPGKGLEWVSSISSSSGYIYYADSVKGRFTISRDNAKNSLYLQMNSLRAEDTAMYYCARAVSTIAARPGYYYYYMDVWGKGTLVTVSS
VL: B4 VL with V15I, G28D, N31T, L33F, G34A, S53T, Q55R, S76N
B8: anti-CDH17 recombinant antibody 4F9 (human IgG1) (antibody, V domains shown)
VH: QVQLQESGPGLVKPSGTLSLTCAVSGGSISSSNWWSWVRQPPGKGLEWIGEIYHSGSTSYNPSLKSRVTISVDKSKNQFSLKLSSVTAADTAVYYCARNDWGFPLDCWGQGTLVTVSS
VL: DIQMTQSPSSLSASVGDRVTITCRASQSISSYLNWYQQKPGKAPKLLIYAASSLQSGVPSRFSGSGSGTHFTLTISSLQPEDFATYYCQQSHNIPITFGQGTRLEIKR
B9: anti-CDH17 recombinant antibody 2F9 (human IgG1) (antibody, V domains shown)
VH: EVQLVESGGGVVRPGGSLRLSCAASGFTFDDYGMSWVRQAPGKGLEWVSGLSWNGGNTYYADSVKGRFTISRDNAKNSLYLQMNSLRAEDTALYYCARGSRYNWNYDAFDIWGQGTLVTVSS
VL: DIQMTQSPSSLSASIGDRVTITCRASQGIRNALGWYQQKPGKAPKRLIYAASNLQSGVPSRFSGSGSGTEFTLTISSLQPEDFATYYCLQHNSYPFTFGPGTKVEIKR
B10: anti-CDH17 recombinant antibody 9E2 (human IgG1) (antibody, V domains shown)
VH: B9 VH with D31N, L51I, S52N, N57S, K65R, N105S
VL: B9 VL with I15V, I29V, N53S

Legend:
[1] = molecular target: human CDH17 as originally expressed in cells (AsPC1, GP2d) (human, UniProt Q12864 23-832); test: cell-based or functional assay
[2] = molecular target: cynomolgus CDH17-His tag (Acro Biosystems, catalog number CA7-C52H4) (cynomolgus); test: Octet BLI, antibody on AHC biosensor, His-tagged antigen 200 nM to 3.1 nM

Row | Binder | IC50 of indirect killing assay to evaluate the internalization of recombinant anti-CDH17 antibodies into AsPC1 cells [1] [nM] | Kd [2] [nM] | kon [2] [M⁻¹ s⁻¹] | koff [2] [s⁻¹]
1 | B1 | 0.09 | 2.5 | 620000 | 
2 | B2 | 0.09 |  |  | 
3 | B3 | 0.09 |  |  | 
4 | B4 | 0.08 | 15 | 80000 | 0.0012
5 | B5 | 0.19 |  |  | 
6 | B6 | 1.99 |  |  | 
7 | B7 | 0.08 |  |  | 
8 | B8 | 0.29 |  |  | 
9 | B9 | 0.14 |  |  | 
10 | B10 | 0.15 |  |  | 
